Here are results for one molecule from patent US20190046652A1.

One experiment concerns the target protein (GFP & Nanobody). The experiment in a line: fluorescence titration, curve fitting.
In another experiment the target is Peptide (C4 and C2). Put plainly: fluorescence titration, curve fitting.

In general, Kd refers to the equilibrium constant for the complex coming apart. Read a high Kd as weaker binding.

B1: VEPEP-3a (peptide)
peptide: XKWFERWFREWPRKRR
HELM: PEPTIDE1{[ac].[bAla].K.W.F.E.R.W.F.R.E.W.P.R.K.R.R.[SCCN[*:1]]}$$$$V2.0
SMILES: CC(=O)NCCC(=O)N[C@@H](CCCCN)C(=O)N[C@@H](Cc1c[nH]c2ccccc12)C(=O)N[C@@H](Cc1ccccc1)C(=O)N[C@@H](CCC(=O)O)C(=O)N[C@@H](CCCNC(=N)N)C(=O)N[C@@H](Cc1c[nH]c2ccccc12)C(=O)N[C@@H](Cc1ccccc1)C(=O)N[C@@H](CCCNC(=N)N)C(=O)N[C@@H](CCC(=O)O)C(=O)N[C@@H](Cc1c[nH]c2ccccc12)C(=O)N1CCC[C@H]1C(=O)N[C@@H](CCCNC(=N)N)C(=O)N[C@@H](CCCCN)C(=O)N[C@@H](CCCNC(=N)N)C(=O)N[C@@H](CCCNC(=N)N)C(=O)NCCS
In the case of B1, the Kd with protein (GFP & Nanobody) is 1000 nM; with Peptide (C4 and C2), 10 to 20 nM.
